Source: patent US20240124545A1, “COMPOSITIONS AND METHODS RELATING TO THE TREATMENT OF DISEASES” (ILC THERAPEUTICS LIMITED, priority 2021, published 2024)
Where “and” joins values, the source holds several entries; their conditions need not be identical. Equal values may be shown once. Read-outs that look alike come from different tables or passages of the source.

Columns and labels:
SARS-CoV-1 [1] = format: cell-based, SARS-HCoV2003VA2774; details: Vero E6 cells
[2] = test system: Herpes Simplex Virus Type 1 (HSV1); test: HSV1 infection of primary human keratinocytes; format: cell-based
HeLa-CD4-βgal cells [3] = test system: HeLa-CD4-βgal cells
SARS-CoV-1 [4] = format: cell-based
HRSV Long strain = test: HRSV infectivity assay, immunostaining readout in HEp-2 cells; format: cell-based, human respiratory syncytial virus (HRSV) Long strain; details: for HRSV Infectivity in HEp-2 cells (% vehicle): 72 hours, average of duplicates; for HRSV Infectivity in HEp-2 cells - Raw OD- Absorbance (490 nm): duplicate A490 values
HIV-1 LAI [5] = details: for HIV Infectivity in HeLa-CD4-βgal cells (% vehicle): 48 hours
[6] = test system: SK-OV-3 NucLight Red cells co-cultured with natural killer (NK) cells; test: Live cell imaging assay of immune cell killing (IncuCyte ZOOM); format: cell-based
Procedure: The effect of a hybrid recombinant interferon was tested in a live cell imaging assay of immune cell killing on an IncuCyte ZOOM platform. SK-OV-3 ovarian cancer cells with red labelled nuclei (SK-OV-3 NucLight Red) were used as target cells in the study. For immune cell killing, the cells were co-cultured with natural killer (NK) cells and positive controls consisted of cells treated with IL-2 and IL-12. Apoptosis was detected by staining caspase 3/7 positive objects while cell number was determined by counting of red nuclei. […] An initial optimisation experiment was carried out that tested 4 ratios of target and effector cells. […] Results were compared to no treatment controls, vehicle treated controls and IL-2/IL-12 treated cells. All conditions were tested using cells in co-culture (SK-OV-3 NucLight and NK cells) and mono-culture (SK-OV-3 NucLight Red). Cells were monitored for 4 days using an IncuCyte ZOOM, and IncuCyte software was used to measure green (apoptosis) and red (cell number) object count over time. Area under the curve (AUC) analysis was used to quantitate apoptosis and cell number over the time course.

IL 17F = test: Suppression of IL-17F; format: cell-based; details: listed as Hybrid 2
human RSV = test: Plaque assay with human RSV (FIG. 9); format: cell-based
natural killer cells = test: NK cell monoculture model (cell clustering); format: cell-based
HeLa-CD4-βgal cells [7] = test system: HeLa-CD4-βgal cells; remark: listed apart in the source
IL-17A = test: Suppression of IL-17A synthesis; format: cell-based
HIV-1 LAI [8] = test: HIV-1 LAI infectivity assay with β-galactosidase readout (Experiment 5); format: cell-based, human immunodeficiency virus type 1 (HIV-1) LAI strain; details: for HIV-1 Infectivity in HeLa-CD4-βgal cells (% vehicle): mean of duplicates; for HIV Infectivity in HeLa CD4 βgal cells (β-galactosidase units): individual values

B1: Sample B: recombinant IFN-α10-IFN-α14 hybrid interferon alpha, amino acid sequence SEQ ID NO:3; sample B in Experiments 4 and 5 (protein)
chain: CDLPQTHSLGNRRALILLGQMGRISPFSCLKDRHDFRIPQEEFDGNQFQKAQAISVLHEMMQQTFNLFSTKNSSAAWDETLLEKFYIELFQQMNDLEACVIQEVGVEETPLMNEDSILAVKKYFQRITLYLIERKYSPCAWEVVRAEIMRSLSFSTNLQKRLRRKD
SARS-CoV-1 [1]
  inhibition of the cytopathic effect following SARS-CoV-1 infection: inhibit the cytopathic effect
[2]
  effect on HSV1 infection: reduces Herpes Simplex Virus Type 1 (HSV1) infection
HeLa-CD4-βgal cells [3]
  CC50, Cytotoxicity Assay (uninfected HeLa-CD4-Bgal cells): >10000 ng/mL
SARS-CoV-1 [4]
  inhibition of plaque formation following SARS-CoV-1 infection: inhibit the cytopathic effect and plaque formation
HEp-2 cells
  CC50, Cytotoxicity Assay (Hep-2 cells): >10000 ng/mL
HRSV Long strain; 0.001 ng/mL
  HRSV Infectivity in HEp-2 cells (% vehicle): 91.5 % vehicle
  HRSV Infectivity in HEp-2 cells - Raw OD- Absorbance (490 nm): 0.647 and 0.675
HRSV Long strain; 0.01 ng/mL
  HRSV Infectivity in HEp-2 cells (% vehicle): 71.3 % vehicle
  HRSV Infectivity in HEp-2 cells - Raw OD- Absorbance (490 nm): 0.550 and 0.573
HRSV Long strain; 0.1 ng/mL
  HRSV Infectivity in HEp-2 cells (% vehicle): 27.6 % vehicle
  HRSV Infectivity in HEp-2 cells - Raw OD- Absorbance (490 nm): 0.353 and 0.338
HRSV Long strain; 1.0 ng/mL
  HRSV Infectivity in HEp-2 cells (% vehicle): 9.7 % vehicle
  HRSV Infectivity in HEp-2 cells - Raw OD- Absorbance (490 nm): 0.244 and 0.270
HRSV Long strain; 10 ng/mL
  HRSV Infectivity in HEp-2 cells (% vehicle): 12.3 % vehicle
  HRSV Infectivity in HEp-2 cells - Raw OD- Absorbance (490 nm): 0.248 and 0.292
HRSV Long strain; 100 ng/mL
  HRSV Infectivity in HEp-2 cells (% vehicle): 11.9 % vehicle
  HRSV Infectivity in HEp-2 cells - Raw OD- Absorbance (490 nm): 0.283 and 0.253
HRSV Long strain; 1,000 ng/mL
  HRSV Infectivity in HEp-2 cells (% vehicle): 9.6 % vehicle
  HRSV Infectivity in HEp-2 cells - Raw OD- Absorbance (490 nm): 0.262 and 0.251
HRSV Long strain; 10,000 ng/mL
  HRSV Infectivity in HEp-2 cells (% vehicle): 6.6 % vehicle
  HRSV Infectivity in HEp-2 cells - Raw OD- Absorbance (490 nm): 0.252 and 0.230
HRSV Long strain; HRSV Long, Hep-2 cells, 3 days
  IC50 (infectivity), HRSV Antiviral Assay: 0.03 ng/mL and 0.027 ng/mL
HIV-1 LAI [5]
  IC50 (infectivity), HIV-1 Antiviral Assay: 0.009 ng/mL
HIV-1 LAI [5]; 0.0001 ng/mL
  HIV Infectivity in HeLa CD4 βgal cells (β-galactosidase units): 1,159,421 RLU and 1,143,347 RLU
  HIV Infectivity in HeLa-CD4-βgal cells (% vehicle): 101.4 % vehicle
HIV-1 LAI [5]; 0.001 ng/mL
  HIV Infectivity in HeLa-CD4-βgal cells (% vehicle): 91.9 % vehicle
HIV-1 LAI [5]; 0.01 ng/mL
  HIV Infectivity in HeLa CD4 βgal cells (β-galactosidase units): 729,428 RLU and 754,356 RLU
  HIV Infectivity in HeLa-CD4-βgal cells (% vehicle): 65.2 % vehicle
HIV-1 LAI [5]; 0.1 ng/mL
  HIV Infectivity in HeLa CD4 βgal cells (β-galactosidase units): 505,696 RLU and 431,727 RLU
  HIV Infectivity in HeLa-CD4-βgal cells (% vehicle): 41.1 % vehicle
HIV-1 LAI [5]; 1.0 ng/mL
  HIV Infectivity in HeLa CD4 βgal cells (β-galactosidase units): 338,683 RLU and 353,822 RLU
  HIV Infectivity in HeLa-CD4-βgal cells (% vehicle): 30.3 % vehicle
HIV-1 LAI [5]; 10 ng/mL
  HIV Infectivity in HeLa CD4 βgal cells (β-galactosidase units): 292,575 RLU and 343,225 RLU
  HIV Infectivity in HeLa-CD4-βgal cells (% vehicle): 27.8 % vehicle
HIV-1 LAI [5]; 100 ng/mL
  HIV Infectivity in HeLa CD4 βgal cells (β-galactosidase units): 289,671 RLU and 320,902 RLU
  HIV Infectivity in HeLa-CD4-βgal cells (% vehicle): 26.7 % vehicle
HIV-1 LAI [5]; 1,000 ng/mL
  HIV Infectivity in HeLa CD4 βgal cells (β-galactosidase units): 340,382 RLU and 330,715 RLU
  HIV Infectivity in HeLa-CD4-βgal cells (% vehicle): 29.4 % vehicle
HIV-1 LAI [5]; 10,000 ng/mL
  HIV Infectivity in HeLa CD4 βgal cells (β-galactosidase units): 363,841 RLU and 344,014 RLU
  HIV Infectivity in HeLa-CD4-βgal cells (% vehicle): 31.0 % vehicle
[6]
  IC50 for the reduction in cell number: 1.3×10^6 IU/ml
[6]; SK-OV-3 NucLight Red mono-culture
  apoptosis response of cells in mono-culture: only a marginal response
[6]; co-culture model
  EC50 for apoptosis induction: 1.5×10^6 IU/ml
[6]; co-culture model, top dose (3×10^6 IU/ml), 4 days, vehicle controls 200
  AUC of apoptosis (caspase 3/7 positive object count over time): 1174
[6]; top dose, vehicle controls 39921
  AUC values for cell number (red nuclei count over time): 19501
IL 17F
  suppression of IL 17F: inhibits both 17 A and F very strongly
Human RSV
  inhibition of a plaque assay with human RSV: inhibition of a plaque assay with human RSV
Natural killer cells
  direct activation of natural killer cells (cell clustering): very strong direct activation of natural killer cells
HeLa-CD4-βgal cells [7]
  CC50, Cytotoxicity Assay (HeLa-CD4-βgal cells): >10000 ng/mL
IL-17A; listed as HYBRID 2
  suppression of IL-17A synthesis: suppression of IL-17A synthesis
IL-17A; listed as Hybrid 2
  suppression of IL-17A synthesis: inhibits both 17 A and F very strongly
HIV-1 LAI [8]; 0.0001 ng/mL, 48 hours
  HIV-1 Infectivity in HeLa-CD4-βgal cells (% vehicle): 102.4 % vehicle
HIV-1 LAI [8]; 0.0001 ng/mL
  HIV Infectivity in HeLa CD4 βgal cells (β-galactosidase units): 971,384 RLU and 1,112,752 RLU
HIV-1 LAI [8]; 0.001 ng/mL, 48 hours
  HIV-1 Infectivity in HeLa-CD4-βgal cells (% vehicle): 96.3 % vehicle
HIV-1 LAI [8]; 0.001 ng/mL
  HIV Infectivity in HeLa CD4 βgal cells (β-galactosidase units): 1,062,736 RLU and 896,209 RLU
HIV-1 LAI [8]; 0.01 ng/mL, 48 hours
  HIV-1 Infectivity in HeLa-CD4-βgal cells (% vehicle): 77.7 % vehicle
HIV-1 LAI [8]; 0.01 ng/mL
  HIV Infectivity in HeLa CD4 βgal cells (β-galactosidase units): 761,455 RLU and 820,758 RLU
HIV-1 LAI [8]; 0.1 ng/mL, 48 hours
  HIV-1 Infectivity in HeLa-CD4-βgal cells (% vehicle): 58.0 % vehicle
HIV-1 LAI [8]; 0.1 ng/mL
  HIV Infectivity in HeLa CD4 βgal cells (β-galactosidase units): 588,618 RLU and 595,007 RLU
HIV-1 LAI [8]; 1 ng/mL, 48 hours
  HIV-1 Infectivity in HeLa-CD4-βgal cells (% vehicle): 36.0 % vehicle
HIV-1 LAI [8]; 1.0 ng/mL
  HIV Infectivity in HeLa CD4 βgal cells (β-galactosidase units): 343,482 RLU and 394,833 RLU
HIV-1 LAI [8]; 10 ng/mL, 48 hours
  HIV-1 Infectivity in HeLa-CD4-βgal cells (% vehicle): 30.2 % vehicle
HIV-1 LAI [8]; 10 ng/mL
  HIV Infectivity in HeLa CD4 βgal cells (β-galactosidase units): 302,405 RLU and 317,823 RLU
HIV-1 LAI [8]; 100 ng/mL, 48 hours
  HIV-1 Infectivity in HeLa-CD4-βgal cells (% vehicle): 28.9 % vehicle
HIV-1 LAI [8]; 100 ng/mL
  HIV Infectivity in HeLa CD4 βgal cells (β-galactosidase units): 278,916 RLU and 314,495 RLU
HIV-1 LAI [8]; 1,000 ng/mL, 48 hours
  HIV-1 Infectivity in HeLa-CD4-βgal cells (% vehicle): 30.7 % vehicle
HIV-1 LAI [8]; 1,000 ng/mL
  HIV Infectivity in HeLa CD4 βgal cells (β-galactosidase units): 299,975 RLU and 330,705 RLU
HIV-1 LAI [8]; 10,000 ng/mL, 48 hours
  HIV-1 Infectivity in HeLa-CD4-βgal cells (% vehicle): 31.5 % vehicle
HIV-1 LAI [8]; 10,000 ng/mL
  HIV Infectivity in HeLa CD4 βgal cells (β-galactosidase units): 300,821 RLU and 344,654 RLU
HIV-1 LAI [8]; HIV-1 LAI, 48 hours
  IC50 (infectivity), HIV-1 Antiviral Assay (HeLa-CD4-Bgal cells): 0.03 ng/mL
HIV-1 LAI [8]; highest concentrations tested (10 μg/mL)
  infection signal still observed: about 25%
